Substrate: CSC(=N)NCCC[C@H](N)C(=O)O
Assay: steady-state kinetics
Assay type: biochemical, Homo sapiens

B1: human dimethylarginine dimethylaminohydrolase-1 (DDAH-1) (Homo sapiens) (protein)
chain: MAGLGHPAAFGRATHAVVRALPESLGQHALRSAKGEEVDVARAERQHQLYVGVLGSKLGLQVVELPADESLPDCVFVEDVAVVCEETALITRPGAPSRRKEVDMMKEALEKLQLNIVEMKDENATLDGGDVLFTGREFFVGLSKRTNQRGAEILADTFKDYAVSTVPVADGLHLKSFCSMAGPNLIAIGSSESAQKALKIMQQMSDHRYDKLTVPDDIAANCIYLNIPNKGHVLLHRTPEEYPESAKVYEKLKDHMLIPVSMSELEKVDGLLTCCSVLINKKVDS
Km: 0.37 ± 0.03 µM

— PMC3248755
